Source: the supplement of paper PMC11246515
± gives the standard deviation of the averaged measurements.

Assay: total protein half-life in vivo (active degradation + dilution); higher = more stable protein
[1] = E. coli NCM3722 delta-clpP delta-lon delta-hslV, growth: N-lim chemostat, doubling time 6 h
[2] = wild type E. coli NCM3722, growth: C-lim chemostat, doubling time 3 h
[3] = wild type E. coli NCM3722, growth: C-lim chemostat, doubling time 12 h
[4] = wild type E. coli NCM3722, growth: P-lim chemostat, doubling time 6 h
[5] = wild type E. coli NCM3722, growth: P-lim chemostat, doubling time 12 h
[6] = E. coli NCM3722 delta-clpP, growth: N-lim chemostat, doubling time 6 h
[7] = E. coli NCM3722 delta-hslV, growth: N-lim chemostat, doubling time 6 h
[8] = E. coli NCM3722 delta-lon, growth: N-lim chemostat, doubling time 6 h
[9] = E. coli NCM3722 delta-smpB, growth: N-lim chemostat, doubling time 6 h
[10] = wild type E. coli NCM3722, growth: C-lim chemostat, doubling time 6 h
[11] = wild type E. coli NCM3722, growth: N-lim chemostat, doubling time 6 h
[12] = wild type E. coli NCM3722, growth: N-lim chemostat, doubling time 12 h

Substance	total protein half-life in vivo [1] [h]	total protein half-life in vivo [2] [h]	total protein half-life in vivo [3] [h]	total protein half-life in vivo [4] [h]	total protein half-life in vivo [5] [h]	total protein half-life in vivo [6] [h]	total protein half-life in vivo [7] [h]	total protein half-life in vivo [8] [h]	total protein half-life in vivo [9] [h]	total protein half-life in vivo [10] [h]	total protein half-life in vivo [11] [h]	total protein half-life in vivo [12] [h]
MDINNKARIHWACRRGMRELDISIMPFFEHEYDSLSDDEKRIFIRLLECDDPDLFNWLMNHGKPADAELEMMVRLIQTRNRERGPVAI	5.79 ± 0.24	3	6.71	4.97	11.3 ± 2.2	–	–	–	–	–	–	–
MKTLIRKFSRTAITVVLVILAFIAIFNAWVYYTESPWTRDARFSADVVAIAPDVSGLITQVNVHDNQLVKKGQILFTIDQPRYQKALEEAQADVAYYQVLAQEKRQEAGRRNRLGVQAMSREEIDQANNVLQTVLHQLAKAQATRDLAKLDLERTVIRAPADGWVTNLNVYTGEFITRGSTAVALVKQNSFYVLAYMEETKLEGVRPGYRAEITPLGSNKVLKGTVDSVAAGVTNASSTRDDKGMATIDSNLEWVRLAQRVPVRIRLDNQQENIWPAGTTATVVVTGKQDRDESQDSFFRKMAHRLREFG	–	–	–	–	–	5.51	–	–	–	–	–	–
MRLDKFIAQQLGVSRAIAGREIRGNRVTVDGEIVRNAAFKLLPEHDVAYDGNPLAQQHGPRYFMLNKPQGYVCSTDDPDHPTVLYFLDEPVAWKLHAAGRLDIDTTGLVLMTDDGQWSHRITSPRHHCEKTYLVTLESPVADDTAEQFAKGVQLHNEKDLTKPAVLEVITPTQVRLTISEGRYHQVKRMFAAVGNHVVELHRERIGGITLDADLAPGEYRPLTEEEIASVV [P0AA43]	5.25 ± 0.067	3 ± 0.1	8.66 ± 0.55	4 ± 0.33	7.21 ± 0.22	4.76 ± 0.54	3.68 ± 0.064	4.65 ± 0.39	3.78 ± 0.066	4.74 ± 0.18	3.57 ± 0.14	6.08 ± 0.51
P0AES2	4.25 ± 0.51	3.03 ± 0.049	8.83 ± 0.4	5.38 ± 0.73	8.99 ± 0.022	3.729 ± 0.03	3.64 ± 0.5	3.41 ± 0.14	3.21 ± 0.19	5.26 ± 0.72	3.14 ± 0.086	4.57 ± 0.082
MSVFPESFLWGGALAANQSEGAFREGDKGLTTVDMIPHGEHRMAVKLGLEKRFQLRDDEFYPSHEATDFYHRYKEDIALMAEMGFKVFRTSIAWSRLFPQGDEITPNQQGIAFYRSVFEECKKYGIEPLVTLCHFDVPMHLVTEYGSWRNRKLVEFFSRYARTCFEAFDGLVKYWLTFNEINIMLHSPFSGAGLVFEEGENQDQVKYQAAHHQLVASALATKIAHEVNPQNQVGCMLAGGNFYPYSCKPEDVWAALEKDRENLFFIDVQARGTYPAYSARVFREKGVTINKAPGDDEILKNTVDFVSFSYYASRCASAEMNANNSSAANVVKSLRNPYLQVSDWGWGIDPLGLRITMNMMYDRYQKPLFLVENGLGAKDEFAANGEINDDYRISYLREHIRAMGEAIADGIPLMGYTTWGCIDLVSASTGEMSKRYGFVFVDRDDAGNGTLTRTRKKSFWWYKKVIASNGEDLE	3.7	–	4.65 ± 0.73	–	4.04 ± 0.89	> 8	1.88	–	1.81 ± 0.14	2.47	–	–
MQAEILLTLKLQQKLFADPRRISLLKHIALSGSISQGAKDAGISYKSAWDAINEMNQLSEHILVERATGGKGGGGAVLTRYGQRLIQLYDLLAQIQQKAFDVLSDDDALPLNSLLAAISRFSLQTSARNQWFGTITARDHDDVQQHVDVLLADGKTRLKVAITAQSGARLGLDEGKEVLILLKAPWVGITQDEAVAQNADNQLPGIISHIERGAEQCEVLMALPDGQTLCATVPVNEATSLQQGQNVTAYFNADSVIIATLC [P0A9G8]	5.338 ± 0.023	3.04 ± 0.29	12.7 ± 0.41	6.2 ± 0.59	12.13 ± 0.038	5.85 ± 0.37	6.82 ± 1.4	6.41 ± 0.61	5.84 ± 0.2	6.38 ± 0.15	5.703 ± 0.02	11.88 ± 0.075
MKFDKPAGENPIDQLKVVGRPHDRIDGPLKTTGTARYAYEWHEEAPNAAYGYIVGSAIAKGRLTALDTDAAQKAPGVLAVITASNAGALGKGDKNTARLLGGPTIEHYHQAIALVVAETFEQARAAASLVQAHYRRNKGAYSLADEKQAVNQPPEDTPDKNVGDFDGAFTSAAVKIDATYTTPDQSHMAMEPHASMAVWDGNKLTLWTSNQMIDWCRTDLAKTLKVPVENVRIISPYIGGGFGGKLFLRSDALLAALAARAVKRPVKVMLPRPSIPNNTTHRPATLQHLRIGADQSGKITAISHESWSGNLPGGTPETAVQQSELLYAGANRHTGLRLATLDLPEGNAMRAPGEAPGLMALEIAIDELAEKAGIDPVEFRILNDTQVDPADPTRCFSRRQLIECLRTGADKFGWKQRNATPGQVRDGEWLVGHGVAAGFRNNLLEKSGARVHLEQNGTVTVETDMTDIGTGSYTILAQTAAEMLGVPLEQVAVHLGDSSFPVSAGSGGQWGANTSTSGVYAACMKLREMIASAVGFDPEQSQFADGKITNGTRSATLHEATAGGRLTAEESIEFGTLSKEYQQSTFAGHFVEVGVHSATGEVRVRRMLAVCAAGRILNPKTARSQVIGAMTMGMGAALMEELAVDDRLGYFVNHDMAGYEVPVHADIPKQEVIFLDDTDPISSPMKAKGVGELGLCGVSAAIANAVYNATGIRVRDYPITLDKLLDKLPDVV	6.02 ± 1.7	–	–	–	–	1.06	–	4.29 ± 0.36	–	6.1	–	–
